According to the supplement of paper PMC9112550, “Optimization of the antimicrobial peptide Bac7 by deep mutational scanning” (BMC Biology, 2022):

Each sequence was assayed on Escherichia coli TOP10 (assay: shrunken log2 fold change of peptide-encoding DNA abundance (4.5 h post-induction vs induction); higher = less antimicrobial activity (less host growth inhibition)). Conditions: time post-induction: 4.5 h; library: site-saturation at positions 5, 18, 19, 20.
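Also: peptides expressed intracellularly from a pBAD plasmid library in pooled LB shake-flask culture, induced with 0.3% L-arabinose, DNA abundance read by NGS, three biological replicates, DESeq2 with apeglm shrinkage.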

| Sequence | shrunken log2 fold change |
| --- | --- |
| RRIRVRPPRLPRPRPRPIYMPRP | -0.438 |
| RRIRVRPPRLPRPRPRPKASPRP | 0.0977 |
| RRIRVRPPRLPRPRPRPKCIPRP | 0.0104 |
| RRIRVRPPRLPRPRPRPKDNPRP | -0.438 |
| RRIRVRPPRLPRPRPRPKECPRP | -0.0265 |
| RRIRVRPPRLPRPRPRPKEKPRP | -0.0337 |
| RRIRVRPPRLPRPRPRPKFAPRP | 0.0713 |
| RRIRVRPPRLPRPRPRPKGIPRP | -0.115 |
| RRIRVRPPRLPRPRPRPKHTPRP | -0.177 |
| RRIRVRPPRLPRPRPRPKIAPRP | 0.0892 |
| RRIRVRPPRLPRPRPRPKIPPRP | 0.0285 |
| RRIRVRPPRLPRPRPRPKKNPRP | 0.28 |
| RRIRVRPPRLPRPRPRPKLTPRP | -0.0989 |
| RRIRVRPPRLPRPRPRPKLWPRP | 0.127 |
| RRIRVRPPRLPRPRPRPKMRPRP | 0.329 |
| RRIRVRPPRLPRPRPRPKPCPRP | 0.205 |
| RRIRVRPPRLPRPRPRPKPFPRP | 0.00969 |
| RRIRVRPPRLPRPRPRPKQWPRP | 0.326 |
| RRIRVRPPRLPRPRPRPKSSPRP | -0.0704 |
| RRIRVRPPRLPRPRPRPKVCPRP | -0.0503 |
| RRIRVRPPRLPRPRPRPKVMPRP | -0.12 |
| RRIRVRPPRLPRPRPRPKWKPRP | -0.0377 |
| RRIRVRPPRLPRPRPRPKYNPRP | -0.658 |
| RRIRVRPPRLPRPRPRPKYTPRP | -0.421 |
| RRIRVRPPRLPRPRPRPLAGPRP | 0.334 |

| Sequence | shrunken log2 fold change |
| --- | --- |
| RRIRVRPPRLPRPRPRPLAIPRP | 0.0184 |
| RRIRVRPPRLPRPRPRPLAWPRP | 0.0442 |
| RRIRVRPPRLPRPRPRPLCGPRP | 0.0478 |
| RRIRVRPPRLPRPRPRPLCPPRP | -0.153 |
| RRIRVRPPRLPRPRPRPLDWPRP | 0.188 |
| RRIRVRPPRLPRPRPRPLECPRP | -0.041 |
| RRIRVRPPRLPRPRPRPLEDPRP | 0.144 |
| RRIRVRPPRLPRPRPRPLFQPRP | -0.0438 |
| RRIRVRPPRLPRPRPRPLHLPRP | -0.133 |
| RRIRVRPPRLPRPRPRPLIAPRP | -0.0308 |
| RRIRVRPPRLPRPRPRPLKEPRP | 0.0279 |
| RRIRVRPPRLPRPRPRPLKYPRP | -0.136 |
| RRIRVRPPRLPRPRPRPLMHPRP | -0.249 |
| RRIRVRPPRLPRPRPRPLMIPRP | -0.361 |
| RRIRVRPPRLPRPRPRPLNVPRP | -0.434 |
| RRIRVRPPRLPRPRPRPLPCPRP | -0.12 |
| RRIRVRPPRLPRPRPRPLPVPRP | 0.0196 |
| RRIRVRPPRLPRPRPRPLPYPRP | -0.587 |
| RRIRVRPPRLPRPRPRPLRQPRP | 0.395 |
| RRIRVRPPRLPRPRPRPLRSPRP | 0.132 |
| RRIRVRPPRLPRPRPRPLSCPRP | -0.307 |
| RRIRVRPPRLPRPRPRPLTHPRP | -0.439 |
| RRIRVRPPRLPRPRPRPLTTPRP | -0.219 |
| RRIRVRPPRLPRPRPRPLVAPRP | 0.196 |
| RRIRVRPPRLPRPRPRPLWEPRP | 0.203 |

| Sequence | shrunken log2 fold change |
| --- | --- |
| RRIRVRPPRLPRPRPRPMDHPRP | -0.426 |
| RRIRVRPPRLPRPRPRPMDKPRP | -0.278 |
| RRIRVRPPRLPRPRPRPMDTPRP | -0.171 |
| RRIRVRPPRLPRPRPRPMEVPRP | -0.997 |
| RRIRVRPPRLPRPRPRPMKAPRP | 0.0113 |
| RRIRVRPPRLPRPRPRPMKSPRP | 3.02 |
| RRIRVRPPRLPRPRPRPMKYPRP | -0.0836 |
| RRIRVRPPRLPRPRPRPMLCPRP | 0.121 |
| RRIRVRPPRLPRPRPRPMLQPRP | 0.154 |
| RRIRVRPPRLPRPRPRPMNFPRP | -0.349 |
| RRIRVRPPRLPRPRPRPMNHPRP | -0.194 |
| RRIRVRPPRLPRPRPRPMNNPRP | -0.694 |
| RRIRVRPPRLPRPRPRPMRVPRP | 0.0609 |
| RRIRVRPPRLPRPRPRPMSDPRP | 0.032 |
| RRIRVRPPRLPRPRPRPMTPPRP | 0.452 |
| RRIRVRPPRLPRPRPRPMVYPRP | -0.17 |
| RRIRVRPPRLPRPRPRPMWCPRP | -0.139 |
| RRIRVRPPRLPRPRPRPMWEPRP | 0.0553 |
| RRIRVRPPRLPRPRPRPMYCPRP | -0.233 |
| RRIRVRPPRLPRPRPRPMYEPRP | -0.774 |
| RRIRVRPPRLPRPRPRPMYVPRP | 3.48 |
| RRIRVRPPRLPRPRPRPMYYPRP | -0.706 |
| RRIRVRPPRLPRPRPRPNAEPRP | 0.0611 |
| RRIRVRPPRLPRPRPRPNASPRP | 0.147 |
| RRIRVRPPRLPRPRPRPNCSPRP | 0.0892 |
